Measurements published in patent US20260139057A1 (University of California, published 2026).
Changes are numbered by the printed parent chain. One block for each binder: values may come before it.

Key:
[1] = biological target: T1, recombinant human integrin αvβ8 ectodomain (human, UniProt P06756 31-992; P26012 43-681); assay: cell-based or functional assay
[2] = biological target: T1, recombinant human integrin αvβ8 …; assay: cell-based or functional assay; remark: listed apart in the source
[3] = biological target: T1, recombinant human integrin αvβ8 …; assay: KinExA, solution-based affinity; antigen form not stated
Description: Samples with serial dilutions are drawn over solid-phase beads coupled with one binding partner to capture the complimentary binding molecule, which is detected by flow of fluorophore-labeled antibody solution binding to a separate epitope on the same molecule being measured. Signals are used to calculate free concentration in solution after equilibrium is reached (i.e. to determine binding affinity KD), or under pre-equilibrium conditions over time (i.e. to determine binding kinetics). Free antigen remaining in solution at equilibrium for varying initial antibody concentrations in constant initial concentration of antigen as determined by the KinExA software, based on optimized least-squares fitting to a reversible binding equation.
A Kinetic Exclusion Assay (KinExA®, Sapidyne Instruments, Inc., Boise, ID) was used to measure the binding affinity of H4C8 (Seq ID NOs. 34, 35) produced with the CH1-CH3 domain from IgG4 (Seq ID NO: 59). […] Samples with serial dilutions are drawn over solid-phase beads coupled with one binding partner to capture the complimentary binding molecule, which is detected by flow of fluorophore-labeled antibody solution binding to a separate epitope on the same molecule being measured. […]

[4] = biological target: T2, integrin αvβ6 ectodomain (immobilized) (human, UniProt P06756 31-992; P18564 22-709); assay: ELISA on immobilized integrin ectodomains plated at 1 µg/ml, blocked with 1% BSA
T2 construct: extracellular domain; Bought from R&D Systems or made in ExpiCHO cells; also called immobilized human αvβ6
Experimental: (§1) FIG. 20: H4C8 maintains ability to block αvβ8-mediated TGF-β activation similar to HuC6D4F12 while maintaining specificity for αvβ8. A) Shown are inhibition curves for the indicated antibody abilities to block the ability of immobilized human αvβ8 to activate human L-TGF-β presented on the cell surface of TMLC by GARP. The assays were performed exactly as described in (Seed et al, Sci Immunol, 2021 and Campbell, et al, Cell 2019). The estimated ED50 values are shown. The antibodies used were HuC6D4 IgG2a, HuC6D4F12 IgG2a or H3.H12, H4C8 or H4C8m (murine VL Fr4) as human IgG4. B) The specificity of H4C8 was tested against immobilized ectodomains of αvβ1, αvβ3, αvβ5, αvβ6 and αvβ8 (either purchased from R &D systems or produced in ExpiCHO cells. All ectodomains were plated at 1 μg/ml and after washing, wells were blocked with 1% BSA. The indicated antibodies (either human IgG4 isotype or H4C8 IgG4).

[5] = biological target: T3, integrin αvβ1 ectodomain (immobilized) (Homo sapiens (Human), UniProt P06756 31-992; P05556 21-728); assay: as above
T3 construct: R&D Systems; copies: 1 + 1
Experimental: as §1

[6] = biological target: T4, integrin αvβ3 ectodomain (immobilized) (Homo sapiens (Human), UniProt P06756 31-992; P05106 27-718); assay: as above
T4 construct: Bought from R&D Systems or made in ExpiCHO cells; copies: 1 + 1
T4 sequence (P06756 31-992 limits assumed, chain 1 of 2): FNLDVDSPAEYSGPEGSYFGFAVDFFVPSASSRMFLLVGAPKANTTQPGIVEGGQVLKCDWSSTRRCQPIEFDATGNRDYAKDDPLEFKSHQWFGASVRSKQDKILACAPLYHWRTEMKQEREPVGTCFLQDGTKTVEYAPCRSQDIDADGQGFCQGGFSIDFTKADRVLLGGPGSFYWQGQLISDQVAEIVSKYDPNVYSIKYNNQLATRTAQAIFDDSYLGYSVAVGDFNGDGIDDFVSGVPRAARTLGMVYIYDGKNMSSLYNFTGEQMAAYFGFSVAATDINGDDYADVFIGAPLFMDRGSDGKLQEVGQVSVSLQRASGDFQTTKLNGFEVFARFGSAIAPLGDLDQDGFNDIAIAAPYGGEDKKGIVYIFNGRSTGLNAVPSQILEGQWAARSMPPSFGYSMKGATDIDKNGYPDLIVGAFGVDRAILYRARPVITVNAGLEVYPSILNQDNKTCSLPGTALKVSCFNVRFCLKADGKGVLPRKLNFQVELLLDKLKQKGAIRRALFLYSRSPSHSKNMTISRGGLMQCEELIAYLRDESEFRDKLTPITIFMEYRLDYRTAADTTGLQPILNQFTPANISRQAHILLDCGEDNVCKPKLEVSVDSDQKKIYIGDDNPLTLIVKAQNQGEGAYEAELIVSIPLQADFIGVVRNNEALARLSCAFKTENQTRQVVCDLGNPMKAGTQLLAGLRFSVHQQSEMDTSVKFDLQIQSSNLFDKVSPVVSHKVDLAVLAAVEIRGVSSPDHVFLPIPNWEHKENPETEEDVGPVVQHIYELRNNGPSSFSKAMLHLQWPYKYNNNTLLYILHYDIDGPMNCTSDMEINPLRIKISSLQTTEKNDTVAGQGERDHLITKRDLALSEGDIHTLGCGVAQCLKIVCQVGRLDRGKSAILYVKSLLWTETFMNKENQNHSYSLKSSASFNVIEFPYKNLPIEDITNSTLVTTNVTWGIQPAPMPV
T4 sequence (P05106 27-718 limits assumed, chain 2 of 2): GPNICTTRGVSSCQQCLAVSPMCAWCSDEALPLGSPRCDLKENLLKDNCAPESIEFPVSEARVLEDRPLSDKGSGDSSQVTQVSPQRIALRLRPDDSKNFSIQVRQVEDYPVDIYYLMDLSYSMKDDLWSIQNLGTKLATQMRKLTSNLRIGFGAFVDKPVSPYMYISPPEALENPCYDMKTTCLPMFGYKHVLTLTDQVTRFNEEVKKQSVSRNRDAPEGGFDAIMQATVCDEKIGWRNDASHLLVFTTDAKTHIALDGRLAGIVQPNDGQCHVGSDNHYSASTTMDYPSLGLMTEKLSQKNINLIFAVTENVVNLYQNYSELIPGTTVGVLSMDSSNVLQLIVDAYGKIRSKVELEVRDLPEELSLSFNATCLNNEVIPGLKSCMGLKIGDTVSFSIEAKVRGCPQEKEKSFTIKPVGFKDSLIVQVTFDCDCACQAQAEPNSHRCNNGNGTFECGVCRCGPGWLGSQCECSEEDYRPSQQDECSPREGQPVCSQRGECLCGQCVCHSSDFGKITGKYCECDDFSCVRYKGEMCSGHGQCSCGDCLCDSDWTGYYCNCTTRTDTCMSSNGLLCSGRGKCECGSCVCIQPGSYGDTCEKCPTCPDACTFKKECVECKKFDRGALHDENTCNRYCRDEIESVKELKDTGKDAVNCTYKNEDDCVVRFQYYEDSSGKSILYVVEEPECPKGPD
Experimental: as §1

[7] = biological target: T5, integrin αvβ5 ectodomain (immobilized) (Homo sapiens (Human), UniProt P06756 31-992; P18084 24-719); assay: as above
T5 construct: R&D Systems; copies: 1 + 1
T5 sequence (P06756 31-992 limits assumed, chain 1 of 2): as the sequence (P06756 31-992 limits assumed, chain 1 of 2) above
T5 sequence (P18084 24-719 limits assumed, chain 2 of 2): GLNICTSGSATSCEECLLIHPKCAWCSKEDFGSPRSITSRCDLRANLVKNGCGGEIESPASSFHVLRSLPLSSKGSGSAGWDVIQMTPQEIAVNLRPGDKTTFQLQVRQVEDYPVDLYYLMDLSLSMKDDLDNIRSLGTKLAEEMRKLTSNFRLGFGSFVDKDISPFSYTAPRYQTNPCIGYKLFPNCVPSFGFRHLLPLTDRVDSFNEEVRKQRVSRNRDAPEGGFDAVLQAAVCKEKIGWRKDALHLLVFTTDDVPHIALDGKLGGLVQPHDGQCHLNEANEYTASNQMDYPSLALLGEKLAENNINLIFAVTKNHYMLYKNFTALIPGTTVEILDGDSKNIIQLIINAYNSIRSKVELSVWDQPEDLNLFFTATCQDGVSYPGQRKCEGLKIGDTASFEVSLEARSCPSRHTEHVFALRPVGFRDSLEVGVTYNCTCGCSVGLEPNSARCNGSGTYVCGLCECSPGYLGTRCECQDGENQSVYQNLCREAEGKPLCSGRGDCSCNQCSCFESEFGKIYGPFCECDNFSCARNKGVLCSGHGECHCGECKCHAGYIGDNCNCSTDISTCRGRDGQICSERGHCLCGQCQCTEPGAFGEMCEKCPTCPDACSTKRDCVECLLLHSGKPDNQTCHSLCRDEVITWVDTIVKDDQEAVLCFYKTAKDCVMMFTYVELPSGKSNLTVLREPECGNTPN
Experimental: as §1

[8] = biological target: T6, human integrin αvβ8 on transfected cells (CHO cells stably transfected; HEK 293 cells stably expressing αvβ8) (human, UniProt P06756 31-1048; P26012 43-769); assay: flow cytometry on unfixed CHO cells expressing human αvβ8, antibody titrated, hyperbolic least-squares fit (m3 = KD); curves on D00025 [Cont.]
T6 construct: whole, on cells; also called CHO αvβ8 cells; αvβ8 expressing CHO cells
T6 sequence (P06756 31-1048, chain 1 of 2): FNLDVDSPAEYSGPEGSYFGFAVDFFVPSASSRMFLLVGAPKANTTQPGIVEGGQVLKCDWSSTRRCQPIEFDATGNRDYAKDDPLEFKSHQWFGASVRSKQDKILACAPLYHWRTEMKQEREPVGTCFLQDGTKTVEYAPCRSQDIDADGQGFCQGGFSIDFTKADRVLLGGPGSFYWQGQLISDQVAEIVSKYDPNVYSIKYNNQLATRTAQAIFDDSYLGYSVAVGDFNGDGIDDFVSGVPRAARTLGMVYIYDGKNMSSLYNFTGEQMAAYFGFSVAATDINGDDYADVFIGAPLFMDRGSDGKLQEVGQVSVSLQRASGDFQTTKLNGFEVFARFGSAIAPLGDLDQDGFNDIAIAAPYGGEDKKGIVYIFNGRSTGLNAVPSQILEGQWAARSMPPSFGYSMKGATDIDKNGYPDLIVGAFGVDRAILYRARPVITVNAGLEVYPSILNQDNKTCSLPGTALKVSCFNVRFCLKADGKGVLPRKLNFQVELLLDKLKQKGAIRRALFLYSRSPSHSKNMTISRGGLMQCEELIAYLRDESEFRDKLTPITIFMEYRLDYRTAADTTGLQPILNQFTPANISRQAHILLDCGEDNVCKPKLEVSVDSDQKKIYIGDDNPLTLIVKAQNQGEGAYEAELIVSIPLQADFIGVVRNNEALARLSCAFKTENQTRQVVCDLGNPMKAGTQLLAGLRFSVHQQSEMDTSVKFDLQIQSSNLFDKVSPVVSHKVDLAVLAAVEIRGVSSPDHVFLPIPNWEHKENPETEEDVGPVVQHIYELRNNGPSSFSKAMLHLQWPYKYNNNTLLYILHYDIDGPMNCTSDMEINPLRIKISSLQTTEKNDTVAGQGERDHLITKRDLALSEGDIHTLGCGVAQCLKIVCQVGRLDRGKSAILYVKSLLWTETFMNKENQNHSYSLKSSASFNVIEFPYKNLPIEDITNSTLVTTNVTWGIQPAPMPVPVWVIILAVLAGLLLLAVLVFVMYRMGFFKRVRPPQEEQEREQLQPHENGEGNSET
T6 sequence (P26012 43-769, chain 2 of 2): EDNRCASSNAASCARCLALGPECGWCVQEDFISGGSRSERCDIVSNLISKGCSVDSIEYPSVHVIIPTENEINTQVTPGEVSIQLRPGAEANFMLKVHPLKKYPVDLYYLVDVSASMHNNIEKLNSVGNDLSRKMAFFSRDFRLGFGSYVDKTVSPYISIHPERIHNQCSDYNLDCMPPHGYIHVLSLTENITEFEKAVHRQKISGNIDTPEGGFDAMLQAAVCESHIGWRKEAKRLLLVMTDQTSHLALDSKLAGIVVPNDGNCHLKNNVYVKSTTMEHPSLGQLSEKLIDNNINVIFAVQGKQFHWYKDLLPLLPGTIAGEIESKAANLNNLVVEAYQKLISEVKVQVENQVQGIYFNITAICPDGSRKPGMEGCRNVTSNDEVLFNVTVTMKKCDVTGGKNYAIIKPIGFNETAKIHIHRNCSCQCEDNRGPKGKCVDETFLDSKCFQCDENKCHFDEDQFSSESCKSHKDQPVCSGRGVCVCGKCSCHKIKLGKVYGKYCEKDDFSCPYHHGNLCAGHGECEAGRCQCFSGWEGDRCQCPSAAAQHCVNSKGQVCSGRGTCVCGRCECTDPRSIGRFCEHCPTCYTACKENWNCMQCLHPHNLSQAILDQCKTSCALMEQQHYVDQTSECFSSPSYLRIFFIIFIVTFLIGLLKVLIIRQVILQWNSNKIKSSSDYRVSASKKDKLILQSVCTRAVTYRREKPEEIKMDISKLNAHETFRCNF
Experimental: (§2) FIG. 17: Characterization of cell surface binding of humanized affinity optimized anti-αvβ8 antibodies. The cell surface binding affinities of H4C8, H4G9, H4C10, H4G8 compared to HuC6D4F12 expressed as IgG4 (S228P to prevent arm exchange, R409K and L445P to reduce aggregation and to promote stability). […] Cell surface affinity was determined using the least-squares fit model based on the hyperbolic equation y=m1+m2*m0/(m3+m0), where y=MFI at different avb8 concentrations; m0=αvβ8 concentration; m1=MFI with no αvβ8; m2=MFI at saturation; and m3=KD.
(§3) FIG. 18: Binding characteristics of H4C8 of formalin fixed αvβ8 compared to HuC6D4F12 or ADWA11 2.4 (from Pat no. US2020/0079855 A1). CHO αvβ8 expressing cells were fixed in 2% buffered formalin in PBS for 15 min at RT and then stained at the indicated concentrations as described in FIG. 17. The binding affinities to unfixed or formalin fixed cells is shown. Cell surface affinity was determined using the least-squares fit model based on the hyperbolic equation y=m1+m2*m0/(m3+m0), where y=MFI at different αvβ8 concentrations; m0=αvβ8 concentration; m1=MFI with no αvβ8; m2=MFI at saturation; and m3=KD.

[9] = biological target: T6, human integrin αvβ8 on transfected …; assay: flow cytometry on CHO cells expressing human αvβ8 fixed in 2% buffered formalin for 15 min, antibody titrated, hyperbolic least-squares fit (m3 = KD); curves on D00025 [Cont.]
Experimental: as §2, §3

[10] = biological target: T6, human integrin αvβ8 on transfected …; assay: flow cytometry, surface binding to CHO αvβ8 cells

T1 sequence (P06756 31-992 limits assumed, chain 1 of 2): as the sequence (P06756 31-992 limits assumed, chain 1 of 2) above
T1 sequence (P26012 43-681 limits assumed, chain 2 of 2): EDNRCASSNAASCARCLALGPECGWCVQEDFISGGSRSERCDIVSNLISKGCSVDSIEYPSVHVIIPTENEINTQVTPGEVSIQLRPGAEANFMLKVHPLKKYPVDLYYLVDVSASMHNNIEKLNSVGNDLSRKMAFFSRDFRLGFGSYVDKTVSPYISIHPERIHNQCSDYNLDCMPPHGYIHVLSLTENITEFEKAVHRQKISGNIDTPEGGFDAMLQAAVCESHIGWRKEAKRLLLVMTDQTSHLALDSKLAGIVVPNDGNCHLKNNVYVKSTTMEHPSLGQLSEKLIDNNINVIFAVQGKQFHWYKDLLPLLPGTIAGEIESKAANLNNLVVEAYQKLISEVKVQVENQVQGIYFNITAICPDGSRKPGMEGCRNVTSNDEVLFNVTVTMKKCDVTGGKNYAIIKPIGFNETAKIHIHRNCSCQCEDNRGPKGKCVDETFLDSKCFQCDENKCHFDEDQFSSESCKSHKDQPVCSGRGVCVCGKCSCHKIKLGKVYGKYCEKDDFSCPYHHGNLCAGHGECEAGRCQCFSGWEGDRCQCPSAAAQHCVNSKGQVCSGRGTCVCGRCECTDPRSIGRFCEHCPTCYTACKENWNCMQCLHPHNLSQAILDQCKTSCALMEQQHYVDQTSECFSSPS

EC50 of inhibition of αvβ8-mediated TGF-β activation [1]: 0.1 µM | ED50 of the inhibition of αvβ8-mediated TGF-β activation (immobilized αvβ8, TMLC GARP/L-TGF-β reporter cells) [2]: 0.01 µg/mL | Kd [3]: 7.07 pM | binding result [4]: no binding | binding result [5]: no binding | binding result [6]: no binding | binding result [7]: no binding | Kd [8]: 2.6 nM | Kd [9]: 3.6 nM
B1: H4C8 human IgG4 (antibody, V domains shown)
VH: QVQLVQSGAEVKKPGASVKVSCKVSGYTLTRQSMHWVRQAPGKGLEWMGRINTETGEPTYAQKFQGRVTMTQDTSTDTAYMELSSLRSEDTAVYFCAIFYYGRDTWGQGTTVTVSS
VL: EIVMTQSPATLSVSPGERVTLSCRSSQSLLHSRSRKNYLAWYQQKPGQAPRLLIYWASTRETGVPARFSGSGSGTEFTLTISSLQSEDFAVYYCKQSYNLLSFGQGTKVEIKR
notes: also called H4C8 IgG4

fold lower affinity than F12 mouse IgG2a [10]: 70 fold
B2: Clone H1.1 as human IgG4 (antibody, V domains shown)
VH: B1 VH with R31K, Q32L, T55D, T59I, Q72E, F95Y, T105S, V112L
VL: B1 VL with V19A, S25A, S34T, E61A, V64I, K108V, V109L
